Measured values published in PMC2553597 (Nucleic Acids Research, 2008).
Where two headings read alike, the source gives them in different places. Values belong to the binder of their own block, whether it stands above or below them.

B1: human RAD54B N-terminal fragment, amino acid residues 26-225 (RAD54B_(26–225)) (domain or fragment, UniProt Q9Y620 26-225, looked up)
chain: SNPGLNEEITKLNPDIKLFEGVAINNTFLPSQNDLRICSLNLPSEESTREINNRDNCSGKYCFEAPTLATLDPPHTVHSAPKEVAVSKEQEEKSDSLVKYFSVVWCKPSKKKHKKWEGDAVLIVKGKSFILKNLEGKDIGRGIGYKFKELEKIEEGQTLMICGKEIEVMGVISPDDFSSGRCFQLGGGSTAISHSSQVAR

Legend:
[1] = target: the molecule itself; assay: SEC
[2] = target: T1, DMC1 (UniProt Q14565 1-340); assay: pull-down
T1 sequence (looked up): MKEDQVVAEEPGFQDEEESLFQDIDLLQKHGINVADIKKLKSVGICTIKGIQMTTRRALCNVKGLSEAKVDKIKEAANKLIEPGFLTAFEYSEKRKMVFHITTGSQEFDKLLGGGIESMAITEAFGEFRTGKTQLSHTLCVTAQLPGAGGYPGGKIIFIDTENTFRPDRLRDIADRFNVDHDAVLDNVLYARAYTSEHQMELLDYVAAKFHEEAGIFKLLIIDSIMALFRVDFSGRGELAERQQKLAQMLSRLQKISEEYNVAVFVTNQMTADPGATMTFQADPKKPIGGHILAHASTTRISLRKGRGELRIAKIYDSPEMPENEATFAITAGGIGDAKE

[3] = target: B1; assay: pull-down
[4] = target: T2, RAD54B26-225 (Homo sapiens, UniProt Q9Y620 26-225); assay: EMSA
T2 sequence: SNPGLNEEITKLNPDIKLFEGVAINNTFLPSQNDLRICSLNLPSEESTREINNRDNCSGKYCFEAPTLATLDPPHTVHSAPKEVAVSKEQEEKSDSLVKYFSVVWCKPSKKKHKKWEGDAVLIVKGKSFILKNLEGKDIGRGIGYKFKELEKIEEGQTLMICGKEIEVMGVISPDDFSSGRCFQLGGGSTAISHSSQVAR

[5] = target: T2, RAD54B26-225; assay: EMSA; remark: listed apart in the source
[6] = target: T2, RAD54B26-225; assay: EMSA; remark: listed apart in the source
[7] = target: T2, RAD54B26-225; assay: EMSA; remark: listed apart in the source

Binder: B1
- stoichiometry N [1]: 2
- binding result [2]: binds

- binding result [3]: binds
B2: GST-fused DMC1 deletion mutant, amino acid residues 153-214 (fragment VI) (domain or fragment, UniProt Q14565 153-214, looked up)
chain: GGKIIFIDTENTFRPDRLRDIADRFNVDHDAVLDNVLYARAYTSEHQMELLDYVAAKFHEEA

- binding result [3]: binds
Binder: ASTTRISLRKGRGELRIAKIYDSPEMPENEATFAITAGGIGDAKE (domain or fragment, UniProt Q14565 296-340, looked up) [GST-fused DMC1 deletion mutant, amino acid residues 296-340 (fragment X)]

Binder: AAAAAAAAAAAAAAAAAAAAAAAAAAAAAAAAAAAAAAAAAAAA (ssDNA) [polyA 44-mer]
- binding result [4]: binds

B3: dsDNA (oligos 2/2a) (dsDNA)
DNA 1: TGGGTCAACGTGGGCAAAGATGTCCTAGCAATGTAATCGTCTATGACGTT
DNA 2: AACGTCATAGACGATTACATTGCTAGGACATCTTTGCCCACGTTGACCCA
- binding result [5]: binds

B4: 3'-PX junction (oligos 2/6/7/10) (structured_DNA)
DNA 1: TGGGTCAACGTGGGCAAAGATGTCCTAGCAATGTAATCGTCTATGACGTT
DNA 2: GTCGGATCCTCTAGACAGCTCCATGATCACTGGCACTGGTAGAATTCGGC
DNA 3: CAACGTCATAGACGATTACATTGCTACATGGAGCTGTCTAGAGGATCCGA
DNA 4: GGACATCTTTGCCCACGTTGACCC
- binding result [6]: binds

B5: 5'-flapped DNA (oligos 2/8/15) (structured_DNA)
DNA 1: TGGGTCAACGTGGGCAAAGATGTCCTAGCAATGTAATCGTCTATGACGTT
DNA 2: CAACGTCATAGACGATTACATTGCTAATCACTGGCACTGGTAGAATTCGGC
DNA 3: TGCCGAATTCTACCAGTGCCAGTGAT
- binding result [7]: binds
